Assays:
[1] = molecular target: T1, LANA 1-950 (Kaposi's sarcoma-associated herpesvirus); assay: EMSA; conditions: label: radiolabel
T1 chain: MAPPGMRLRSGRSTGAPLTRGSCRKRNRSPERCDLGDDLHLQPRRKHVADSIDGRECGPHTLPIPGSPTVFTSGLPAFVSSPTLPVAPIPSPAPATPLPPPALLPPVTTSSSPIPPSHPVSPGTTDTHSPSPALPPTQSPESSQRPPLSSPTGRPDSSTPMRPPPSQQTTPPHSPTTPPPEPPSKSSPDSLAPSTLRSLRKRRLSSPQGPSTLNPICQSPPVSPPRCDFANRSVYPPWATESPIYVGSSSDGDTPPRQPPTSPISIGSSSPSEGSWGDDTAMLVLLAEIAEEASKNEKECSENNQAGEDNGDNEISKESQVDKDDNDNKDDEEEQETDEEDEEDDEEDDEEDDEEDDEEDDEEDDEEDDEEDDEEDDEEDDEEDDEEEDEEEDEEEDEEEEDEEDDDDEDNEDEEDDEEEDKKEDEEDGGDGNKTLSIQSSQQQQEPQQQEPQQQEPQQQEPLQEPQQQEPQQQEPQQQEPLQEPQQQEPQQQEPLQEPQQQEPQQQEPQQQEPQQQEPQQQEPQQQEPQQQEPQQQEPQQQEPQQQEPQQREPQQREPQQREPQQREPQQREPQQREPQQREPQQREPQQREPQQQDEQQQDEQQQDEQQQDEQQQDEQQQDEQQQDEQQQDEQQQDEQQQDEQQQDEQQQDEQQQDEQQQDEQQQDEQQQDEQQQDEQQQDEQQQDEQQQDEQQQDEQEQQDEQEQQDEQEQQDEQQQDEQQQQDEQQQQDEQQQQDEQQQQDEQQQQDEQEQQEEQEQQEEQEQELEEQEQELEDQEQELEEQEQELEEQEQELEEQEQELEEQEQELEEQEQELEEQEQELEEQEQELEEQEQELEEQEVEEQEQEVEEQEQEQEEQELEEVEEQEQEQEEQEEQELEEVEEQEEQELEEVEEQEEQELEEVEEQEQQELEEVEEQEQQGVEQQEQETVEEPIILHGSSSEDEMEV

[2] = molecular target: LANA 9-11 (last 237 aa) (Kaposi's sarcoma-associated herpesvirus, UniProt Q9QR71 SEQ:926-1162); assay: EMSA; lacks leucine zipper; anti-LANA supershift; conditions: tags: GST; label: radiolabel
LANA 9-11 (last 237 aa), sequence (Q9QR71 893-1129): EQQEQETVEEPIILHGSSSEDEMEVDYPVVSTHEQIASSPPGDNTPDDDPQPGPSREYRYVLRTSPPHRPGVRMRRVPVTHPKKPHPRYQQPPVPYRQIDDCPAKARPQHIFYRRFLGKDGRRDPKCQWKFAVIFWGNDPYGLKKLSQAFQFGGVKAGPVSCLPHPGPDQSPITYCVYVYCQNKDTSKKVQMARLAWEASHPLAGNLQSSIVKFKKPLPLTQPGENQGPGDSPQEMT

B1: TLBR4 (dsDNA)
DNA 1: TCCCGCCCGGGCATGGG
DNA 2: CCCATGCCCGGGCGGGA
binding result [1]: no binding | binding result [2]: binds

— US20040248081, “LANA viral protein binding sites” (THE REGENTS OF THE UNIVERSITY OF MICHIGAN, published 2004)
